Laboratory results: patent US8329409B2, “Methods, kits, and antibodies for detecting parathyroid hormone” (Scantibodies Laboratory, Inc., priority 1999, dated 2012)
Where “and” joins values, the source holds several entries; their conditions need not be identical. Identical values can stand only once. Entries after “also recorded” stand apart in the source; their conditions may differ.

Assays:
[1] = test system: PTX rats; experiment: Calcemic response in parathyroidectomized (PTX) rats; assay type: in vivo, Sprague-Dawley rats
Procedure: Calcemic response. Normal female Sprague-Dawley rats weighing 225 to 250 g (Harlan, Indianapolis, Ind., USA) were parathyroidectomized (PTX) and fed a 0.02% calcium diet. Rats with a plasma calcium below 7.0 mg/dL after overnight fasting were included in the study. A 20 μg dose of hPTH 1-84 or 7-84 was given intraperitoneally to PTX rats in four doses of 5 μg each at 30-minute intervals (0, 30, 60, and 90 minutes). For control studies, the rats received vehicle (saline solution) alone. Blood was drawn via the tail at 0, 60, 90, and 120 minutes. For competition experiments, rats received an injection of hPTH 7-84 10 minutes prior to each injection of hPTH 1-84. The molar ratio of hPTH 7-84/hPTH 1-84 was 1:1.
Total plasma calcium levels were determined using an atomic absorption spectrophotometer (model 1100B; Perkin Elmer, Norwalk, Conn., USA). Plasma phosphorus levels were determined using an autoanalyzer (COBAS MIRA Plus; Roche, Newark, N.J., USA).

[2] = test system: Whole PTH assay (goat antibodies to PTH 39-84 and to the first six amino acids of human PTH); experiment: Whole PTH IRMA assay, recognition of hPTH 1-84 vs hPTH 7-84; assay type: binding; conditions: hPTH 7-84 at a concentration as high as 10,000 pg/mL
Procedure: Another method would be to couple the initial wPTH sequence antibody to colloidal solid supports, such as latex particles. More specifically, one can create a signal antibody by iodinating 50 micrograms of affinity purified goat anti-(1-6) PTH antibody (Scantibodies Laboratory, Inc., Santee Calif., U.S.A.) by oxidation with chloramine T, incubation for 25 seconds at room temperature with 1 millicurie of 125-1 radioisotope and reduction with sodium metabisulfate. […] The fractions collected from the desalting column are measured in a gamma counter and those fractions representing the 125-1-goat anti-(1-6) PTH antibody are pooled and diluted to approximately 300,000 D PM (disintegrations per minute) per 100 microliters. […]
To conduct a whole PTH assay of a sample, 200 microliter samples of human serum are added to the solid phase antibody coated tubes. […] Radioactivity on the solid phase, which amount corresponds to the quantity of wPTH present, is measured using a gamma counter. The radioactivity data for the samples is processed by conventional analysis with use of the results from standards and controls and computer software in order that the concentration of whole PTH in the samples may be ascertained. […]

[3] = test system: ROS/17.2 cells; experiment: cAMP production in osteoblastic cell line ROS/17.2; assay type: cell-based, rat; conditions: for effect on cAMP production: 10^-11 to 10^-8 mol/L, no-effect statement at 10^-8 mol/L
Procedure: Osteoblastic cell line. To compare the biological effects of the two peptides (hPTH 1-84 and 7-84), intracellular cAMP production was measured in the rate osteosarcoma cell line ROS/17.2, which has an osteoblastic phenotype and is known to increase cAMP production in response to PTH. Cells were cultured in Ham's F12 media containing 10% fetal bovine serum. Cells were plated out in 12-well plates at a density of 30,000 cells per well and grown to confluence. Cells were washed three times with KHMS buffer at 37° C. (KCI 4.0 mmol/L, CaCl2 1.25 mmol/L, MgSO4 1.25 mmol/L, KH2PO4 1.2 mmol/L, HEPES 10 mmol/L, NaCl 100 mmol/L, NaHCO3 37 mmol/L, and glucose 10 mmol/L, pH 7.5). cAMP production was measured using 500 μL of KHMS buffer (37°) containing isobutyl-1 methylxantine (IBMX) 1.0 mmol/L and various concentrations (10^−11 to 10^−8 mol/L) of hPTH 1-84 or hPTH 7-84. After a five-minute incubation, 100 μL of 1.8 mol/L pechloric acid were added. After an additional five-minute incubation at room temperature, 100 μL of 3 mol/KHCO3 were added to neutralize the acid. Samples were centrifuged at 3000 rpm for 15 minutes, and the supernatants were assayed for cAMP [26].

[4] = test system: Sprague-Dawley rats; experiment: Phosphaturic response (clearance studies) in rats; assay type: in vivo
Procedure: Phosphaturic response. Normal female Sprague-Dawley rats weighing 225 to 250 g were prepared for clearance studies under light anesthesia. Polyethylene catheters (PE50) were placed in the femoeral artery for the collection of blood and measurement of blood pressure (Blood Pressure Analyzer; Micro-Medic, Inc., Louisville, Ky., USA), in the femoral vein for infusion and in the bladder for the collection of urine. Rats were placed in Plexiglas® holders and allowed to recover from the effect of the anesthetic for one hour. A priming dose (0.6 mL) of chemical inulin in saline was administered over a period of three minutes to achieve a plasma inulin level between […]. A solution of saline containing inulin to maintain this level and calcium gluconate to deliver 0.5 mg. Calcium was infused at the rate of 0.03 mL/min. After equilibration, a total of four 30-minute urine collections was obtained.
To assess the effect of hPTH 1-84 on phosphate excretion, urine was collected during two control periods, after which rats received a priming bolus of 1.8 μg of hPTH 1-84 followed by a sustained infusion that delivered a total of 8.2 μg of I-PTH. After an equilibration period of 20 minutes, two 30-minute urine collections were obtained. […]
Blood samples and blood pressure measurements were recorded at the beginning and end of the baseline period, at the beginning of the PTH infusion period, and at the end of the study. The concentration of inulin in plasma and urine was determined by the method of Fuhr, Kaczmarczyk, and Kruttgen, Klin Wochenschr, 33:729-730 (1955). The estimation of the glomerular filtration rate (GFR) by inulin clearance and the calculation of the fractional urinary excretion rate of phosphorus (FEP04) were performed in the standard fashion. Blood samples were centrifuged, and plasma phosphorus and calcium concentrations were measured.

[5] = test system: Nichols Intact PTH assay; experiment: Nichols Intact (I-Nichols) PTH assay, recognition of hPTH 1-84 vs hPTH 7-84; assay type: binding; conditions: compared with hPTH 1-84
Text: The present whole IRMA assay was compared to a conventional intact PTH or I-PTH immunoassay, the Allegro Nichols Intact-PTH assay, (which is commercially available and made by Nichols Institute Diagnostics of San Juan Capistrano, Calif., U.S.A.), in both PTH normal persons and those suffering from chronic uremia. This I-PTH immunoassay, detects both PTH7-84 and wPTH (see FIG. 10).
This new Whole PTH two-site assay (Scantibodies Laboratories, Santee, Calif., USA) first employees and antibody that recognizes the 39-84 region of the PTH molecule. This antibody, produced in a goat and affinity purified, is present in relative excess and is immobilized onto polystyrene-coated tubes. The second antibody, also developed in a goat, was also affinity purified and recognizes only the first six amino acids (1 to 6; Ser-Val-Ser-Glu-Ile-Gln) of the human PTH molecule (FIG. 1). This anti-hPTH assay uses synthetic human PTH 1-84 as the standard, with a limit of detection of approximately 1 to 2 pg/mL. Normal values range from 5 to 35 pg/mL. […] The Whole PTH assay was compared with the Intact PTH assay purchases from the Nichols Institute (I-Nichols, San Jan Capistrano, Calif., USA). Synthetic human PTH 1-84 and 7-84 were purchased from Bachem (Torrance, Calif. USA). To assess circulating levels of hPTH 1-84 and non-(1-84) PTH, heparinized blood samples were obtained before dialysis from 28 patients who had been maintained on chronic hemodialysis for 1.2 to 7.5 years and from 14 renal transplant patients (1 to 6 years).

Molecule	increase in plasma calcium ([1]; PTX rats fed a 0.02% calcium diet, 20 μg intraperitoneally in four doses of 5 μg, N=9, P<0.001)	detection by the Whole PTH assay [2]	intracellular cAMP after treatment ([3]; 10^-8 mol/L peptide, five-minute incubation, increased from 18.1±1.25 nmol/well, N=6)	effect on cAMP production [3]	glomerular filtration rate (GFR), treatment period ([4]; rats infused with hPTH 1-84 alone, control period 1.8±0.3, N=10)	fractional excretion of phosphate (FEP04), treatment period ([4]; rats infused with hPTH 1-84 alone, increased from 11.9±2.4, N=10, P<0.001)	recognition by the Nichols Intact PTH assay [5]	recognition by the Nichols Intact PTH assay ([5]; listed as 7-84)	recognition by the Nichols Intact PTH assay ([5]; listed as PTH7-84)	decrease in plasma calcium ([1]; PTX rats fed a 0.02% calcium diet, 20 μg intraperitoneally in four doses of 5 μg, N=5, P<0.05)	decrease of the calcemic response induced by hPTH 1-84 alone ([1]; hPTH 7-84 given with hPTH 1-84 in a 1:1 molar ratio, PTX rats, N=6, P<0.001)	decrease of the increase in FEP04 (phosphaturia) induced by hPTH 1-84 ([4]; co-administration of hPTH 7-84 with hPTH 1-84 (molar ratio 4:1))	glomerular filtration rate (GFR), treatment period ([4]; hPTH 7-84 given simultaneously with hPTH 1-84 (molar ratio 4:1), increased from 2.1±0.1, N=8, P<0.05)
hPTH 1-84: Synthetic human PTH 1-84 purchased from Bachem; complete 84 amino acid human parathyroid hormone (SEQ ID NO: 1) (peptide) SVSEIQLMHNLGKHLNSMERVEWLRKKLQDVHNFVALGAPLAPRDAGSQRPRKKEDNVLVESHEKSLGEADKADVNVLTKAKSQ	0.65 ± 0.10 mg/dL	detected with a high degree of sensitivity	738±4.13 nmol/well and 738±4.1 nmol/well	increased cAMP production in a does-dependent manner; also recorded: increased cAMP production in a dose-dependent manner	1.8 ± 0.1 mL/min	27.7±2.4%							
hPTH 7-84: Synthetic human PTH 7-84 purchased from Bachem; large non-(1-84) PTH fragment, PTH antagonist (PIN) (peptide) peptide: LMHNLGKHLNSMERVEWLRKKLQDVHNFVALGAPLAPRDAGSQRPRKKEDNVLVESHEKSLGEADKADVNVLTKAKSQ		undetectable		no effect			does not differentiate	did not discriminate	detects	0.30 ± 0.08 mg/dL	94%	50.2%	2.6 ± 0.2 mL/min
